From patent US20100172907A1 (Hoffmann-La Roche, published 2010)
Groups on a side chain read outwards from the residue. No end group written: not given here. NSMP = not defined here

Columns and labels:
Aβ (1-42) peptide = target: T1, Aβ (1-42) peptide (human); assay: SPR, immobilized fibers;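 also: biacore SPR using in vitro grown Aβ1-40 or Aβ1-42 fibrils immobilized on the chip with Fab analytes, KD from koff/kon fits or equilibrium isotherms based on total Fab concentration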
T1 construct: also called Aβ1-42 fibers; Aβ4
Method: (§1) Biacore2000 and Biacore3000 instruments were used for these measurements. Aβ1-40 and Aβ1-42 fibers were generated in vitro by incubation of synthetic peptides at a concentration of 200 μg/ml in 10 mM Na-acetate buffer (pH 4.0) for three days at 37° C. […] For binders with slow kinetics KD values were calculated by curve fitting of the time-dependent sensor responses, i.e. from the ratio of koff/kₒₙ. Binders with fast kinetics were analyzed by fitting the concentration-dependent sensor responses at equilibrium (adsorption-isotherms). KD values were calculated from the Biacore sensograms based on the total Fab concentration as determined by a protein assay. […] Briefly, time-dependent protein binding to Aβ1-40 fibers immobilized on the Biacore chip was measured during the association phase under mass-limited conditions at different flow rates of the analyte solution.

human Aβ (1-40) peptide = target: T2, human Aβ (1-40) peptide (human); assay: SPR, immobilized fibers;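 also: biacore SPR using in vitro grown Aβ1-40 or Aβ1-42 fibrils immobilized on the chip with Fab analytes, KD from koff/kon fits or equilibrium isotherms based on total Fab concentration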
T2 construct: also called Aβ1-40 fibers
Method: as §1

[1] = target: T3, BSA-conjugated Aβ heptapeptide LVFFAEC (reading uncertain; also: BSA conjugate); assay: ELISA
T3 construct: also called Peptide 17-22
T3 peptide: LVFFAEC([NSMP-BSA])
Method: (§2) 50 μl of NSMP activated BSA (6.7 mg/ml) was diluted with 50 μl of PBS, 0.1% sodium azide and 10 μl of peptide solution (1 mM in DMSO) was added. As negative control activated BSA was mock-treated without peptide addition. After 4 hrs at room temperature the reaction was stopped by addition of 10 μl of 10 mM Cystein. An aliquot of the conjugate reaction mixture was diluted 1:100 with 0.1M sodium bicarbonate buffer and immediately filled into the wells (100 μl) of ELISA plates (Nunc Immuno-Plate). After standing 16 hrs at 4° C. 100 μl blocking buffer (as above) was added to each well and incubated for another 30 minutes. The plates were washed with 2×300 μl/well TBST (as above) and filled with 100 μl antibody at 10 μg/ml or 2 μg/ml in blocking buffer. The plates were kept 16 hours at 4° C. and washed with 2×300 μl TBST. 100 μl/well HRP-conjugated anti-human Ig H+L (Pierce, dilution 1:1000 with blocking buffer) was added and incubated for 1 hour at ambient temperature. The plates were washed with 3×300 μl/well TBST. Colour development was started by addition of 100 μl tetra-methyl benzidine/hydrogen peroxide reagent.

[2] = target: T4, BSA-conjugated Aβ heptapeptide AEFRHDC (C-terminal Cys coupled to NSMP-activated BSA); assay: ELISA
T4 construct: also called Peptide 2-7
T4 peptide: AEFRHDC
Method: as §2

[3] = target: T5, BSA-conjugated Aβ heptapeptide FFAEDVC (C-terminal Cys coupled to NSMP-activated BSA); assay: ELISA
T5 construct: also called Peptide 19-24
T5 peptide: FFAEDVC
Method: as §2

[4] = target: T6, BSA-conjugated Aβ heptapeptide VFFAEDC (C-terminal Cys coupled to NSMP-activated BSA); assay: ELISA
T6 construct: also called Peptide 18-23
T6 peptide: VFFAEDC
Method: as §2
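For OD ratio 17-22/BSA in this document: ELISA of antibody at 10 or 2 µg/ml binding plate-coated BSA–peptide conjugates, detected with HRP anti-human Ig and TMB colour, mock-treated BSA without peptide as negative control.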
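For OD ratio 19-24/BSA in this document: ELISA of antibody at 10 or 2 µg/ml binding plate-coated BSA–peptide conjugates, detected with HRP anti-human Ig and TMB colour, mock-treated BSA without peptide as negative control.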
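For OD ratio 2-7/BSA in this document: ELISA of antibody at 10 or 2 µg/ml binding plate-coated BSA–peptide conjugates, detected with HRP anti-human Ig and TMB colour, mock-treated BSA without peptide as negative control.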
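For Peptide-ratio 17-22/2-7 in this document: ELISA of antibody at 10 or 2 µg/ml binding plate-coated BSA–peptide conjugates, detected with HRP anti-human Ig and TMB colour, mock-treated BSA without peptide as negative control.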

Row | Binder | Kd (Aβ (1-42) peptide) | Kd (human Aβ (1-40) peptide) | also measured
1 | MS-Roche #8.2.H4 Fab (Fab, V domains shown, H-CDR2 printed with 16 residues) VH: QVQLVESGGGLVQPGGSLRLSCAASGFTFSSYAMSWVRQAPGKGLEWVSATSVKGKTYYADSVKGRFTISRDNSKNTLYLQMNSLRAEDTAVYYCARLLSRGYNGYYHKFDVWGQGTLVTVSS VL: not shown | 11.9 nM | 12.1 nM | –
2 | MS-Roche #3.4.H13 Fab (Fab, V domains shown) VH: QVQLVESGGGLVQPGGSLRLSCAASGFTFSSYAMSWVRQAPGKGLEWVSAISEQGRNIYYADSVKGRFTISRDNSKNTLYLQMNSLRAEDTAVYYCARLTHYARYYRYFDVWGQGTLVTVSS VL: not shown | 18.8 nM | 32.3 nM | –
3 | MS-Roche #3.4.L9 Fab (Fab, V domains shown) VH: not shown VL: DIVLTQSPATLSLSPGERATLSCRASRRIHVYYLAWYQQKPGQAPRLLIYGASSRATGVPARFSGSGSGTDFTLTISSLEPEDFATYYCQQTYDYPPTFGQGTKVEIKR | 9.1 nM | 16.3 nM | –
4 | MS-Roche #3.4.H14 Fab (Fab, V domains shown) VH: QVQLVESGGGLVQPGGSLRLSCAASGFTFSSYAMSWVRQAPGKGLEWVSAISESGQYKYYADSVKGRFTISRDNSKNTLYLQMNSLRAEDTAVYYCARLTHYARYYRYFDVWGQGTLVTVSS VL: not shown | 16.8 nM | 13.3 nM | –
5 | MS-Roche #3.6.L2 Fab (Fab, V domains shown) VH: not shown VL: DIVLTQSPATLSLSPGERATLSCRASQFLSRYYLAWYQQKPGQAPRLLIYGASSRATGVPARFSGSGSGTDFTLTISSLEPEDFAVYYCQQTYNYPPTFGQGTKVEIKR | 13.1 nM | 13.7 nM | –
6 | MS-Roche #3.6.H3 Fab (Fab, V domains shown) VH: QVQLVESGGGLVQPGGSLRLSCAASGFTFSSYAMSWVRQAPGKGLEWVSVISETGKFIYYADSVKGRFTISRDNSKNTLYLQMNSLRAEDTAVYYCARLTHYARYYRYFDVWGQGTLVTVSS VL: not shown | 7.5 nM | 5.4 nM | –
7 | MS-Roche #3.4.H2 Fab (Fab, V domains shown, H-CDR2 printed with 16 residues) VH: QVQLVESGGGLVQPGGSLRLSCAASGFTFSSYAMSWVRQAPGKGLEWVSVIDMVGHTYYADSVKGRFTISRDNSKNTLYLQMNSLRAEDTAVYYCARLTHYARYYRYFDVWGQGTLVTVSS VL: not shown | – | – | OD ratio 17-22/BSA [1]: 11; Peptide-ratio 17-22/2-7 [1]: 0.69; OD ratio 2-7/BSA [2]: 16; OD ratio 19-24/BSA [3]: 1; Peptide-ratio 19-24/2-7 [3]: 0.06; OD ratio 18-23/BSA [4]: 1; Peptide-ratio 18-23/2-7 [4]: 0.06
8 | MS-Roche #7.4.H1 Fab (Fab, V domains shown) VH: QVQLVESGGGLVQPGGSLRLSCAASGFTFSSYAMSWVRQAPGKGLEWVSAINATGYRTYYADSVKGRFTISRDNSKNTLYLQMNSLRAEDTAVYYCARGKGNTHKPYGYVRYFDVWGQGTLVTVSS VL: not shown | – | – | OD ratio 17-22/BSA [1]: 16; Peptide-ratio 17-22/2-7 [1]: 0.52; OD ratio 2-7/BSA [2]: 31; OD ratio 19-24/BSA [3]: 16; Peptide-ratio 19-24/2-7 [3]: 0.51; OD ratio 18-23/BSA [4]: 20; Peptide-ratio 18-23/2-7 [4]: 0.65
9 | MS-Roche #7.12.L3 Fab (Fab, V domains shown) VH: QVQLVESGGGLVQPGGSLRLSCAASGFTFSSYGMSWVRQAPGKGLEWVSNISGSGSSTYYADSVKGRFTISRDNSKNTLYLQMNSLRAEDTAVYYCARGKGNTHKPYGYVRYFDVWGQGTLVTVSS VL: DIVLTQSPATLSLSPGERATLSCRASQFVRRGFLAWYQQKPGQAPRLLISGSSNRATGVPARFSGSGSGTDFTLTISSLEPEDFAVYYCLQLYNIPNTFGQGTKVEIKR | 0.9 nM | 0.8 nM | –
10 | MS-Roche #7.12.L1 Fab (Fab, V domains shown) VH: QVQLVESGGGLVQPGGSLRLSCAASGFTFSSYGMSWVRQAPGKGLEWVSNISGSGSSTYYADSVKGRFTISRDNSKNTLYLQMNSLRAEDTAVYYCARGKGNTHKPYGYVRYFDVWGQGTLVTVSS VL: DIVLTQSPATLSLSPGERATLSCRASQYVFRRYLAWYQQKPGQAPRLLISGSSNRATGVPARFSGSGSGTDFTLTISSLEPEDFAVYYCLQLYNIPNTFGQGTKVEIKR | 3.8 nM | – | OD ratio 17-22/BSA [1]: 10; Peptide-ratio 17-22/2-7 [1]: 0.6; OD ratio 2-7/BSA [2]: 16; OD ratio 19-24/BSA [3]: 10; Peptide-ratio 19-24/2-7 [3]: 0.59; OD ratio 18-23/BSA [4]: 12; Peptide-ratio 18-23/2-7 [4]: 0.7
11 | MS-Roche #7.12.L4 Fab (Fab, V domains shown) VH: QVQLVESGGGLVQPGGSLRLSCAASGFTFSSYGMSWVRQAPGKGLEWVSNISGSGSSTYYADSVKGRFTISRDNSKNTLYLQMNSLRAEDTAVYYCARGKGNTHKPYGYVRYFDVWGQGTLVTVSS VL: DIVLTQSPATLSLSPGERATLSCRASQRLKRSYLAWYQQKPGQAPRLLISGSSNRATGVPARFSGSGSGTDFTLTISSLEPEDFAVYYCLQLYNIPNTFGQGTKVEIKR | 0.6 nM | 2 nM | –
12 | MS-Roche #7.12.H1 Fab (Fab, V domains shown) VH: QVQLVESGGGLVQPGGSLRLSCAASGFTFSSYGMSWVRQAPGKGLEWVSNINGNGNRKYYADSVKGRFTISRDNSKNTLYLQMNSLRAEDTAVYYCARGKGNTHKPYGYVRYFDVWGQGTLVTVSS VL: DIVLTQSPATLSLSPGERATLSCRASQYVFRRYLAWYQQKPGQAPRLLISGSSNRATGVPARFSGSGSGTDFTLTISSLEPEDFAVYYCLQLYNIPNTFGQGTKVEIKR | 0.8 nM | 0.6 nM | –
13 | MS-Roche #7.12.L2 Fab (Fab, V domains shown) VH: QVQLVESGGGLVQPGGSLRLSCAASGFTFSSYGMSWVRQAPGKGLEWVSNISGSGSSTYYADSVKGRFTISRDNSKNTLYLQMNSLRAEDTAVYYCARGKGNTHKPYGYVRYFDVWGQGTLVTVSS VL: DIVLTQSPATLSLSPGERATLSCRASQRFFYKYLAWYQQKPGQAPRLLISGSSNRATGVPARFSGSGSGTDFTLTISSLEPEDFAVYYCLQLYNIPNTFGQGTKVEIKR | 5.4 nM | 4 nM | –
14 | MS-Roche #7.9.H1 Fab (Fab, V domains shown, assembled) VH: QVQLVESGGGLVQPGGSLRLSCAASGFTFSSYAMSWVRQAPGKGLEWVSAINANGQRKFYADSVKGRFTISRDNSKNTLYLQMNSLRAEDTAVYYCARGKGNTHKPYGYVRYFDVWGQGTLVTVSS VL: DIVLTQSPATLSLSPGERATLSCRASQSVSSSYLAWYQQKPGQAPRLLIYGASSRATGVPARFSGSGSGTDFTLTISSLEPEDFATYYCLQIYNMPITFGQGTKVEIKR | – | – | OD ratio 17-22/BSA [1]: 7; Peptide-ratio 17-22/2-7 [1]: 0.23; OD ratio 2-7/BSA [2]: 32; OD ratio 19-24/BSA [3]: 6; Peptide-ratio 19-24/2-7 [3]: 0.19; OD ratio 18-23/BSA [4]: 12; Peptide-ratio 18-23/2-7 [4]: 0.36
15 | MS-Roche #7.9.H8 Fab (Fab, V domains shown, assembled) VH: QVQLVESGGGLVQPGGSLRLSCAASGFTFSSYAMSWVRQAPGKGLEWVSAINASGSKIYYADSVKGRFTISRDNSKNTLYLQMNSLRAEDTAVYYCARGKGNTHKPYGYVRYFDVWGQGTLVTVSS VL: DIVLTQSPATLSLSPGERATLSCRASQSVSSSYLAWYQQKPGQAPRLLIYGASSRATGVPARFSGSGSGTDFTLTISSLEPEDFATYYCLQIYNMPITFGQGTKVEIKR | 0.7 nM | 0.8 nM | –
16 | MS-Roche #7.9.L1 Fab (Fab, V domains shown) VH: not shown VL: DIVLTQSPATLSLSPGERATLSCRASQRLSPRYLAWYQQKPGQAPRLLIYGASSRATGVPARFSGSGSGTDFTLTISSLEPEDFATYYCLQIYNMPITFGQGTKVEIKR | 1.1 nM | 1 nM | –
17 | MS-Roche #7.11.H4 Fab (Fab, V domains shown) VH: QVQLVESGGGLVQPGGSLRLSCAASGFTFSSYAMSWVRQAPGKGLEWVSAINANGYKTYYADSVKGRFTISRDNSKNTLYLQMNSLRAEDTAVYYCARGKGNTHKPYGYVRYFDVWGQGTLVTVSS VL: DIVLTQSPATLSLSPGERATLSCRASQSVSSSYLAWYQQKPGQAPRLLIYGASSRATGVPARFSGSGSGTDFTLTISSLEPEDFATYYCQQVYSPPHTFGQGTKVEIKR | 1.7 nM | 1 nM | –
18 | MS-Roche #7.11.H3 Fab (Fab, V domains shown) VH: QVQLVESGGGLVQPGGSLRLSCAASGFTFSSYAMSWVRQAPGKGLEWVSGINANGNRTYYADSVKGRFTISRDNSKNTLYLQMNSLRAEDTAVYYCARGKGNTHKPYGYVRYFDVWGQGTLVTVSS VL: DIVLTQSPATLSLSPGERATLSCRASQSVSSSYLAWYQQKPGQAPRLLIYGASSRATGVPARFSGSGSGTDFTLTISSLEPEDFATYYCQQVYSPPHTFGQGTKVEIKR | 4.4 nM | 6.6 nM | –
19 | MS-Roche #7.11.H5 Fab (Fab, V domains shown) VH: QVQLVESGGGLVQPGGSLRLSCAASGFTFSSYAMSWVRQAPGKGLEWVSAINAHGQRTYYADSVKGRFTISRDNSKNTLYLQMNSLRAEDTAVYYCARGKGNTHKPYGYVRYFDVWGQGTLVTVSS VL: DIVLTQSPATLSLSPGERATLSCRASQSVSSSYLAWYQQKPGQAPRLLIYGASSRATGVPARFSGSGSGTDFTLTISSLEPEDFATYYCQQVYSPPHTFGQGTKVEIKR | 1.7 nM | 3.4 nM | –
20 | MS-Roche #7.11.L1 Fab (Fab, V domains shown) VH: not shown VL: DIVLTQSPATLSLSPGERATLSCRASQRILRIYLAWYQQKPGQAPRLLIYGASSRATGVPARFSGSGSGTDFTLTISSLEPEDFATYYCQQVYSPPHTFGQGTKVEIKR | 1.2 nM | 1.1 nM | –
21 | MS-Roche #7.9.H9 Fab (Fab, V domains shown, assembled) VH: QVQLVESGGGLVQPGGSLRLSCAASGFTFSSYAMSWVRQAPGKGLEWVSAINGKGNKKYYADSVKGRFTISRDNSKNTLYLQMNSLRAEDTAVYYCARGKGNTHKPYGYVRYFDVWGQGTLVTVSS VL: DIVLTQSPATLSLSPGERATLSCRASQSVSSSYLAWYQQKPGQAPRLLIYGASSRATGVPARFSGSGSGTDFTLTISSLEPEDFATYYCLQIYNMPITFGQGTKVEIKR | 0.9 nM | 0.9 nM | –
22 | MS-Roche #7.9.L2 Fab (Fab, V domains shown) VH: not shown VL: DIVLTQSPATLSLSPGERATLSCRASQYLHKRYLAWYQQKPGQAPRLLIYGASSRATGVPARFSGSGSGTDFTLTISSLEPEDFATYYCLQIYNMPITFGQGTKVEIKR | 0.5 nM | 1 nM | –
